Article PMC7922139, “Characterization of a Yellow Laccase from Botrytis cinerea 241” (Journal of Fungi, 2021)

How the values were obtained:
[1] = biological target: yellow laccase Bcl1 from Botrytis cinerea strain 241 (Botrytis cinerea strain 241); assay: SEC; Superdex 200 5/150 GL analytical column, 50 mM Tris-HCl, 150 mM NaCl, pH 8; mass read against standards (apoferritin, beta-amylase, alcohol dehydrogenase, albumin) and compared with the mass by SDS-PAGE
[2] = test system: CCn1c(=NN=c2sc3cc(S(=O)(=O)O)ccc3n2CC)sc2cc(S(=O)(=O)O)ccc21; assay: purified protein; details: 50 mM sodium acetate pH 5.5, 25 °C
[3] = test system: CN(C)CCCN1c2ccccc2Sc2ccccc21; assay: purified protein; details: 50 mM sodium acetate pH 5.5, 25 °C
[4] = test system: COc1cc(/C=C/C(=O)O)cc(OC)c1O; assay: purified protein; details: 50 mM sodium acetate pH 5.5, 25 °C
COc1cc(C(=O)O)cc(OC)c1O = assay: purified protein; details: 50 mM sodium acetate pH 5.5, 25 °C
[5] = test system: COc1cc(C=NN=Cc2cc(OC)c(O)c(OC)c2)cc(OC)c1O; assay: purified protein; details: 50 mM sodium acetate pH 5.5, 25 °C
Nc1ccc(N)cc1 = assay: purified protein; details: 50 mM sodium acetate pH 5.5, 25 °C
[6] = test system: O=C(O)/C=C/c1ccc(O)c(O)c1; assay: purified protein; details: 50 mM sodium acetate pH 5.5, 25 °C
[7] = test system: O=C(O)CCN1c2ccccc2Oc2ccccc21; assay: purified protein; details: 50 mM sodium acetate pH 5.5, 25 °C
O=C(O)c1cc(O)c(O)c(O)c1 = assay: purified protein; details: 50 mM sodium acetate pH 5.5, 25 °C
[8] = test system: O=c1c(O)c(-c2ccc(O)c(O)c2)oc2cc(O)cc(O)c12; assay: purified protein; details: 50 mM sodium acetate pH 5.5, 25 °C
[9] = test system: O=c1c(O)c(-c2ccc(O)c(O)c2)oc2cc(O)ccc12; assay: purified protein; details: 50 mM sodium acetate pH 5.5, 25 °C
[10] = test system: O=c1c(O)c(-c2ccc(O)cc2)oc2cc(O)cc(O)c12; assay: purified protein; details: 50 mM sodium acetate pH 5.5, 25 °C
OCCN1c2ccccc2Oc2ccccc21 = assay: purified protein; details: 50 mM sodium acetate pH 5.5, 25 °C
Oc1ccc(O)cc1 = assay: purified protein; details: 50 mM sodium acetate pH 5.5, 25 °C
Oc1ccccc1O = assay: purified protein; details: 50 mM sodium acetate pH 5.5, 25 °C

yellow laccase Bcl1 from Botrytis cinerea strain 241 (enzyme)
stoichiometry N [1]: 2

Bcl1 laccase (Botrytis cinerea)
Km [2]: 13.8 ± 0.2 µM
kcat [2]: 29 ± 1 s⁻¹
kcat/Km [2]: 2.1e+06 ± 100000 M⁻¹ s⁻¹
Km [3]: 60.0 ± 10 µM
kcat [3]: 7.1 ± 0.3 s⁻¹
Km [4]: 60.0 ± 10 µM
kcat [4]: 100 ± 10 s⁻¹
Km (COc1cc(C(=O)O)cc(OC)c1O): 74.0 ± 12 µM
kcat (COc1cc(C(=O)O)cc(OC)c1O): 3.4 ± 0.5 s⁻¹
kcat/Km (COc1cc(C(=O)O)cc(OC)c1O): 46000 ± 5000 M⁻¹ s⁻¹
Km [5]: 0.7 ± 0.1 µM
kcat [5]: 30 ± 2 s⁻¹
kcat/Km [5]: 4.3e+07 ± 7e+06 M⁻¹ s⁻¹
Km (Nc1ccc(N)cc1): 150.0 ± 20 µM
kcat (Nc1ccc(N)cc1): 15 ± 1 s⁻¹
kcat/Km (Nc1ccc(N)cc1): 100000 ± 2000 M⁻¹ s⁻¹
Km [6]: 15.0 ± 1 µM
kcat [6]: 13 ± 1 s⁻¹
kcat/Km [6]: 870000 ± 200000 M⁻¹ s⁻¹
Km [7]: 6.0 ± 0.8 µM
kcat [7]: 33 ± 1 s⁻¹
kcat/Km [7]: 5.5e+06 ± 800000 M⁻¹ s⁻¹
Km (O=C(O)c1cc(O)c(O)c(O)c1): 27.0 ± 8 µM
kcat (O=C(O)c1cc(O)c(O)c(O)c1): 20 ± 3 s⁻¹
kcat/Km (O=C(O)c1cc(O)c(O)c(O)c1): 740000 ± 200000 M⁻¹ s⁻¹
Km [8]: 3.7 ± 0.8 µM
kcat [8]: 6.7 ± 0.4 s⁻¹
kcat/Km [8]: 1.8e+06 ± 300000 M⁻¹ s⁻¹
Km [9]: 1.5 ± 0.1 µM
kcat [9]: 7.8 ± 0.3 s⁻¹
kcat/Km [9]: 5.2e+06 ± 900000 M⁻¹ s⁻¹
Km [10]: 8.6 ± 0.1 µM
kcat/Km [10]: 2e+06 ± 400000 M⁻¹ s⁻¹
Km (OCCN1c2ccccc2Oc2ccccc21): 40.0 ± 7 µM
kcat (OCCN1c2ccccc2Oc2ccccc21): 25 ± 2 s⁻¹
kcat/Km (OCCN1c2ccccc2Oc2ccccc21): 630000 ± 30000 M⁻¹ s⁻¹
kcat (Oc1ccc(O)cc1): 21.4 ± 0.3 s⁻¹
kcat/Km (Oc1ccc(O)cc1): 97000 ± 2000 M⁻¹ s⁻¹
Km (Oc1ccccc1O): 70.0 ± 4 µM
kcat (Oc1ccccc1O): 28 ± 1 s⁻¹
kcat/Km (Oc1ccccc1O): 400000 ± 20000 M⁻¹ s⁻¹
